This is an account of results in article PMC3706390.

Holding throughout (experiment): EMSA
Conditions in all cases: 30 mM Tris-HCl pH 8.0, 75 mM KCl, 5 mM MgCl2, 1 mM DTT, 0.04 ug/uL BSA, 10% glycerol, 50 ng/uL yeast tRNA, 30 C 15 min; EMSA gels 0.5X TBE at 4 C; RNase …
For orientation: A gel shift assay detects complexes by their altered migration in electrophoresis.

Data set [1] concerns the target L30 K36A K36A (rat) (UniProt P62890).
In data set [2] the target is L30 Y89A Y89A (rat) (UniProt P62890).
Data set [3] concerns the target L30 L35A L35A (rat) (UniProt P62890).
The target in data set [4] is L30 K87A K87A (rat) (UniProt P62890).

For PHGPx SECIS 102 nt (REMSA), the binding signal (% of WT binding) in data set [1] was 78; in data set [2], 32; in data set [3], 86; in data set [4] it was 60.
